Assay results taken from patent publication US20240301030A1.

Legend:
[1] = molecular target: full-length SORLA with C-terminal GFP-tag (human) (UniProt Q92673); assay: cell-based or functional assay
[2] = molecular target: SORLA with C-terminal fusion of the C-terminal fragment of venus fluorescent protein (human) (UniProt Q92673); assay: cell-based or functional assay

| Mander's coefficient, co-localization between the PLA signal (representing SORLA dimers) and SORLA-GFP (representing both monomers and dimers) [1] | Mander's coefficient, overlap between the green venus signal specific for SORLA dimers and the total SORLA pool [2] | Substance |
| --- | --- | --- |
| 0.35 |  | full-length SORLA with C-terminal FLAG-tag, Q92673 82-2214 |
|  | 0.37 | SORLA with C-terminal fusion of the N-terminal fragment of venus fluorescent protein, Q92673 82-2214 |
